Assay [1] concerns the target cynomolgus IL-7Ra expressed on CHOK1-cyno IL-7Ra cells (cynomolgus) (UniProt Q38IC7). The assay can be described thus: flow cytometry, CHOK1-cyno IL-7Ra cells; negative control. A general note: In flow cytometry, cells or beads pass a laser one at a time.
Assay [2] has as its target human IL-7Ra expressed on CHOK1-human IL-7Ra cells (human) (UniProt P16871). The assay can be described thus: flow cytometry, CHOK1-human IL-7Ra cells; negative control.
Assay [3] concerns the target T1, cynomolgus IL-7Ra expressed on CHOK1-cyno IL-7Ra cells (cynomolgus, UniProt Q38IC7 21-459).
T1 sequence: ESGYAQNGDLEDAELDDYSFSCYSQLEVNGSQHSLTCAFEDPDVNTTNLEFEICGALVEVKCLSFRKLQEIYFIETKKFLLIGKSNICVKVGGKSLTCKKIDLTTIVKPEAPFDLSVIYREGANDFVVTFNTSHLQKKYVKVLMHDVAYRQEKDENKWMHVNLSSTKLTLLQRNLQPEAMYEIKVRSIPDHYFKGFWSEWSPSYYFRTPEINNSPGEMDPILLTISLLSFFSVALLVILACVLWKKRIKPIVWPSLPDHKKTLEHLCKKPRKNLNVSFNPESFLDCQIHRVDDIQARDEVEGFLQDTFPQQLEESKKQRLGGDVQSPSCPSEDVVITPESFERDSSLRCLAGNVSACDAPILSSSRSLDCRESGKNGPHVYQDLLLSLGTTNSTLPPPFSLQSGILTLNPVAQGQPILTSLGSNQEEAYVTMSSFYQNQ
The assay can be described thus: flow cytometry, CHOK1-cyno IL-7Ra cells.

The target in assay [4] is T2, human IL-7Ra expressed on CHOK1-human IL-7Ra cells (human, UniProt P16871 21-459).
T2 construct: also called human IL-7Ra expressed on cell membrane; CD127
T2 sequence: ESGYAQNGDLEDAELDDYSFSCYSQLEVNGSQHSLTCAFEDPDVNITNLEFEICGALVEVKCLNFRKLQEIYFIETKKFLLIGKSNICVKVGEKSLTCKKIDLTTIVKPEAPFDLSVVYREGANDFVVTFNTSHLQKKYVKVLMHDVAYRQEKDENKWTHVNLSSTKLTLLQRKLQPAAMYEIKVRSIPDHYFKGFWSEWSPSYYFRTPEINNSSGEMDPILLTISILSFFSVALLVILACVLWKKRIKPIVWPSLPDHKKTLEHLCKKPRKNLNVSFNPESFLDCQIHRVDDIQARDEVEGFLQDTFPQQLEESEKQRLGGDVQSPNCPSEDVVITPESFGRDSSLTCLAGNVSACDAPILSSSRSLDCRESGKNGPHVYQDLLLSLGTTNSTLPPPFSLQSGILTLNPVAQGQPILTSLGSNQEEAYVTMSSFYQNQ
The assay can be described thus: flow cytometry, CHOK1-human IL-7Ra cells.

The target in assay [5] is T1, cynomolgus IL-7Ra expressed on …. The assay can be described thus: flow cytometry on CHOK1-cyno IL-7Ra cells, MFI (upper right panel).
In assay [6] the target is T2, human IL-7Ra expressed on CHOK1-human …. The assay can be described thus: flow cytometry on CHOK1-human IL-7Ra cells, MFI (upper left panel).
Assay [7] deals with T3, Human his-tag IL-7Ra protein (human, UniProt P16871 21-239).
T3 construct: Construct not described; Position of the tag unknown; also called IL-7Ra (Biacore analyte); not shown: his tag
T3 sequence: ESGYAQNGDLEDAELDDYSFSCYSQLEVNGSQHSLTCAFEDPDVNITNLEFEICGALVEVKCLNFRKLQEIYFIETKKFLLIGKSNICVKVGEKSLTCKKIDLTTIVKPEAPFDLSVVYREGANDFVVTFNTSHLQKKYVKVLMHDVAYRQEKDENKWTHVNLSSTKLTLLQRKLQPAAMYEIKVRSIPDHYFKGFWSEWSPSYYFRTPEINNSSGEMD
The assay can be described thus: SPR Biacore 8K, antibody Fc-captured, human his-tag IL-7Ra analyte, 1:1 model. (SPR reads the build-up and loss of mass on a sensor chip optically.)

The target in assay [8] is T4, cynomolgus Fc-tag IL-7Ra protein (cynomolgus, UniProt Q38IC7 21-240).
T4 construct: also called cynomolgus IL-7Ra protein; not shown: Fc tag
T4 sequence: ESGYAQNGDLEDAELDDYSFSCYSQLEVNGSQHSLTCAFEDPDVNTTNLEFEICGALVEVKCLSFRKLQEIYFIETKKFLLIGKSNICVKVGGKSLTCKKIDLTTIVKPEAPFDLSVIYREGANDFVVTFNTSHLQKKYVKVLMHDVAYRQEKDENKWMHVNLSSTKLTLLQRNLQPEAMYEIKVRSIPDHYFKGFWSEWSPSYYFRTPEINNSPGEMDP
The assay can be described thus: ELISA, cynomolgus Fc-tag IL-7Ra protein, HRP-labelled secondary antibody, OD 450 (right panel).

Assay [9] has as its target T5, human Fc-tag IL-7Ra protein (human, UniProt P16871 21-239).
T5 construct: also called human IL-7Ra protein; not shown: Fc tag fused to the N-terminus
T5 sequence: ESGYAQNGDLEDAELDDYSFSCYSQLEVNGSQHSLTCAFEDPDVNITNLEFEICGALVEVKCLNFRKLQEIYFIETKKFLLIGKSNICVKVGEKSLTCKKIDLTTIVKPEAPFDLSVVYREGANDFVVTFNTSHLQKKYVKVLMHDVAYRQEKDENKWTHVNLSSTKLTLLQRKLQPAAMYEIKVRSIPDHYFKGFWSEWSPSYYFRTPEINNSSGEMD
Nature of the assay: ELISA, plate coated with human Fc-tag IL-7Ra protein, HRP-labelled secondary antibody, OD 450 (left panel). On the technique in general: ELISA stands for enzyme-linked immunosorbent assay.

Assay [10] addresses T2, human IL-7Ra expressed on CHOK1-human …. The assay can be described thus: flow cytometry blocking assay: binding of hIL-7-his (0.1 ug/ml) to CHOK1-human IL-7Ra cells in the presence of the antibody, anti-His Alexa Fluor 488, MFI (left panel).

Usually EC50 stands for the concentration at which the effect is half-maximal. Read a low EC50 as higher potency in that assay. In assay [1], “isotype hIgG4 antibody (negative control)” showed an EC50 of 32.2 µg/mL and a Top (MFI) of 93.7 MFI. In [2], this molecule returned an EC50 of 6.8 µg/mL and a Top (MFI) of 73 MFI.

B1: ADX-914 (Tab1) (antibody, human IgG1, kappa, V domains shown)
VH: EVQLVESGGGLVQPGRSLRLSCAASGFTFDDHAMHWVRQAPGKGLEWVSGISWNSRGIGYADSVKGRFTIFRDNAKNSLYLQMNSLRAEDTALYYCAKDEYSRGYYVLDVWGQGTTVTVSS
VL: AIQLTQSPSSLSASVGDRVTITCRASQGISSALAWYQQKPGKAPKLLIYDASSLESGVPSRFSGSGSGTDFTLTISSLQPEDFATYYCQQFNSYPLWITFGQGTRLEIKR
notes: also called benchmark antibody ADX-914
Broadly, the EC50 (read off the curve) is the concentration giving half of the maximal effect. Low readings indicate greater potency, high ones weaker potency. In general, Kd refers to the constant that tells how readily two partners part at equilibrium. The low end stands for tighter binding, the high end for weaker binding. The term koff denotes the rate constant with which the complex falls apart. Read a high koff as a short-lived complex. As usually defined, the kon is a measure of how fast the partners come together. A high value points to fast association. On to B1, for which the EC50 in assay [3] was found to be 0.289 µg/mL; in assay [4], 0.31 µg/mL. Besides, the “Top (MFI)” value in assay [3] is 20800 MFI; in [4] it was 26000 MFI. Besides, the “EC50 (read off the curve)” value was about 0.2 µg/mL in assay [5], about 0.1 µg/mL in assay [6], about 0.03 µg/mL in assay [8] and about 0.01 µg/mL in [9]. Besides, the Kd in [7] stood at 0.258 nM. For the same molecule, the koff in [7] was 0.000297 s⁻¹. Besides, in assay [7], the kon worked out at 1.15e+06 M⁻¹ s⁻¹. Besides, in assay [10], the “IC50 (read off the curve)” value is about 0.1 µg/mL.

B2: HuAb005 (antibody, V domains shown)
VH: QVQLVQSGAEVKKPGASVKVSCKASGYRFTDYELHWVRQAPGQGLEWMGGIDPKTGGTAYNQKFKGRVTMTSDRSTSTVYMELSSLRSEDTAVYYCARSGGRWYFDVWGQGTTVTVSS
VL: DIVLTQSPASLAVSPGQRATITCRTSESVSIHLLHLMHWYQQKPGQPPKLLIYGASNLESGVPARFSGSGSGTDFTLTINPVEAEDTANYYCQQSIKDPYTFGGGTKVEIK
notes: Humanized version of cmAb011; also called humanized VL1 / humanized VH2
With B2, in [3], a half-maximal effect (EC50) was put at 0.207 µg/mL and the “Top (MFI)” value is 16900 MFI. Also, in [4], the concentration for a half-maximal effect (EC50) was determined as 0.188 µg/mL and the “Top (MFI)” value stood at 22300 MFI. Further, in [7], the Kd was 0.214 nM, the koff worked out at 0.000238 s⁻¹ and the kon worked out at 1.11e+06 M⁻¹ s⁻¹.

B3: HuAb004 (antibody, V domains shown)
VH: QVQLVQSGAEVKKPGASVKVSCKASGYRFTDYELHWVRQAPGQGLEWMGGIDPKTGGTAYNQKFKGRVTMTRDTSTSTVYMELSSLRSEDTAVYYCARSGGRWYFDVWGQGTTVTVSS
VL: DIVLTQSPDSLAVSLGERATINCRTSESVSIHLLHLMHWYQQKPGQPPKLLIYGASNLESGVPDRFSGSGSETDFTLTISSLQAEDVAVYYCQQSIKDPYTFGGGTKVEIK
notes: Humanized version of cmAb011; also called humanized VL4 / humanized VH1
Consider B3, for which, in [3], the EC50 is 0.206 µg/mL and the “Top (MFI)” value is 16200 MFI. Besides, in assay [4], a half-maximal effect (EC50) was put at 0.2 µg/mL and the “Top (MFI)” value amounted to 21500 MFI. Besides, in [7], the Kd was found to be 0.181 nM, the koff worked out at 0.00029 s⁻¹ and the kon is 1.6e+06 M⁻¹ s⁻¹.

B4: HuAb003 (antibody, V domains shown)
VH: QVQLVQSGAEVKKPGASVKVSCKASGYRFTDYELHWVRQAPGQGLEWMGGIDPKTGGTAYNQKFKGRVTMTRDTSTSTVYMELSSLRSEDTAVYYCARSGGRWYFDVWGQGTTVTVSS
VL: DIVMTQSPDSLAVSLGERATINCRTSESVSIHLLHLMHWYQQKPGQPPKLLIYGASNLESGVPDRFSGSGSGTDFTLTISSLQAEDVAVYYCQQSIKDPYTFGGGTKVEIK
notes: Humanized version of cmAb011; also called humanized VL3 / humanized VH1
Take B4: in assay [3], the EC50 came to 0.239 µg/mL and the “Top (MFI)” value turned out to be 16100 MFI. For the same molecule, in assay [4], the midpoint of the response, the EC50, lay at 0.21 µg/mL and the “Top (MFI)” value was 21700 MFI. In assay [7], this molecule showed a Kd of 0.212 nM, a koff of 0.000342 s⁻¹ and a kon of 1.61e+06 M⁻¹ s⁻¹.

B5: HuAb008 (antibody, V domains shown)
VH: QVQLVQSGAEVKKPGASVKVSCKASGYRFTDYELHWVRQAPGQGLEWMGGIDPKTGGTAYNQKFKGRVTMTSDRSTSTVYMELSSLRSEDTAVYYCARSGGRWYFDVWGQGTTVTVSS
VL: DIVLTQSPDSLAVSLGERATINCRTSESVSIHLLHLMHWYQQKPGQPPKLLIYGASNLESGVPDRFSGSGSETDFTLTISSLQAEDVAVYYCQQSIKDPYTFGGGTKVEIK
notes: Humanized version of cmAb011; also called humanized VL4 / humanized VH2
Take B5: in [3], the EC50 came out at 0.221 µg/mL and the “Top (MFI)” value stood at 17600 MFI. Also, in assay [4], a half-maximal response (EC50) required 0.171 µg/mL and the “Top (MFI)” value was determined as 20400 MFI. In assay [7], this molecule yielded a Kd of 0.118 nM, a koff of 0.00031 s⁻¹ and a kon of 2.64e+06 M⁻¹ s⁻¹.

B6: HuAb009 (antibody, V domains shown)
VH: QVQLVQSGAEVKKPGASVKVSCKASGYRFTDYELHWVKQAPGQGLEWIGGIDPKTGGTAYNQKFKGRVTMTSDRSTSTVYMELSSLRSEDTAVYYCARSGGRWYFDVWGQGTTVTVSS
VL: DIVLTQSPASLAVSPGQRATITCRTSESVSIHLLHLMHWYQQKPGQPPKLLIYGASNLESGVPARFSGSGSGTDFTLTINPVEAEDTANYYCQQSIKDPYTFGGGTKVEIK
notes: Humanized version of cmAb011; also called humanized VL1 / humanized VH3
In the case of B6, in assay [3], the response was half-maximal at 0.0711 µg/mL (EC50) and the “Top (MFI)” value is 16600 MFI. Further, in assay [4], the EC50 was 0.0719 µg/mL and the “Top (MFI)” value worked out at 20900 MFI. In assay [7], this molecule gave a Kd of 0.188 nM, a koff of 0.000267 s⁻¹ and a kon of 1.42e+06 M⁻¹ s⁻¹.

B7: cmAb011 (chimeric Ab011) (antibody, V domains shown)
VH: QVQLQQSGAELMRPGASVTLSCKTSGYRFTDYELHWVKQTPVRGLEWIGGIDPKTGGTAYNQKFKGKAILTSDRSSSTTYMELRSLASEDSAVYYCTRSGGRWYFDVWGTGTTVTVSS
VL: DIVLTQSPASLAVSLGQRATISCRTSESVSIHLLHLMHWYQQKPGQPPKLLIYGASNLESGVPARFSGSGSETDFTLNIHPVEEEDAATYFCQQSIKDPYTFGGGTKLEIKR
notes: also called chimeric antibody Ab011
On to B7, for which the figures for the EC50 in assay [3] and in assay [4] were 0.134 µg/mL and 0.0842 µg/mL, respectively. In addition, the “Top (MFI)” value in [3] stood at 18400 MFI; in assay [4], 22400 MFI. The “EC50 (read off the curve)” value is about 0.3 µg/mL in [5], about 0.2 µg/mL in assay [6], about 0.04 µg/mL in [8] and about 0.02 µg/mL in assay [9]. In addition, the Kd in assay [7] turned out to be 0.143 nM. In [7], this molecule registered a koff of 0.000234 s⁻¹. This molecule yielded a kon in assay [7] of 1.64e+06 M⁻¹ s⁻¹.

The record behind these values is US20260250402A1 (C O INMAGENE PTE, published 2026).
